This series in a line: self-splicing fitness, log relative to wild type (ln ratio); higher = more splicing; Tetrahymena group I intron in knt gene, E. coli kanamycin selection, DiMSum; sequences stand for … in CUCUCU…GGAGGGAAAAGUUAUCAGGCAUGCACCUGGUAGCUAGUCUUUAAACCAAUAGAUUGCAUCGGUUUAAAAGGCAAGACCGUCAAAUUGCGGGAAAGGGGUCAACAGCCGUUCAGUACCAAGUCUCAGGGGAAACUUUGAGAUGGCCUUGCAAAGGGUAUGGUAAUAAGCUGACGGACAUGGUCCUAACCACGCAGCCAAGUCCUAAGUCAACAGAUCUUCUGUUGAUAUGGAUGCAGUUCACAGACUAAAUGUCGGUCGGGGAAGAUGUAUUCUUCUCAUAAGAUAUAGUCGGACCUCUCCUUAAUGGGAGCUAGCGGAUGAAGUGAUGCAACACUGGAGCCGCUGGGAACUAAUUUGUAUGCGAAAGUAUAUUGAUUAGUUUUGGAGUACUCGUGGUCG
The method in brief:
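Fitness was computed with DiMSum as the error-weighted combination of replicate fold changes, kanamycin versus none, each normalised to wild type. The library randomised all eight intron nucleotides of the P1ex region, with the intron placed in the knt kanamycin-resistance gene on pET-22b(+) in E. coli BL21(DE3). Six replicate transformations were grown overnight at 37°C or 30°C on LB agar with or without 25 μg/mL kanamycin, plus 100 μg/mL carbenicillin, 50 μM IPTG and 0.2% rhamnose. Pooled colonies were amplicon-sequenced on an Illumina HiSeq 2500.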

Consider 62 sequences from the supplement of paper PMC7877785.

± gives the uncertainty stated by the source.

As to UAAAAGCAAUAUUACGCCUU, the “self-splicing fitness (ln)” value reads like this: (30 °C) -1.53 ± 0.12; (37 °C) -0.42 ± 0.12.
Taken in the same sequence, the figures for AAGGAGCAAUAUUACGAAGU were -3.53 ± 0.43 and -2.57 ± 0.36.
For AGUUAGCAAUAUUACGCCAA, the “self-splicing fitness (ln)” value (37 °C) is -1.58 ± 0.43.
With ACUCAGCAAUAUUACGAAAU, the “self-splicing fitness (ln)” value by setting is: (30 °C) -1.11 ± 0.091; (37 °C) 0.0403 ± 0.099.
On to GUUUAGCAAUAUUACGCCAU, for which the “self-splicing fitness (ln)” value (30 °C) is -1.68 ± 0.4.
Consider AUGGAGCAAUAUUACGAUUG, for which the “self-splicing fitness (ln)” value runs as follows: (30 °C) -2.3 ± 0.25; (37 °C) -3.12 ± 0.33.
Regarding AUUAAGCAAUAUUACGGGCA, the “self-splicing fitness (ln)” value is -0.791 ± 0.12 (30 °C) and -0.507 ± 0.12 (37 °C).
For AUACAGCAAUAUUACGCUAG the same measures were -1.61 ± 0.079 and -1.23 ± 0.096.
Regarding UAAGAGCAAUAUUACGGCCG, the “self-splicing fitness (ln)” value is -1.79 ± 0.14 (30 °C) and -0.743 ± 0.2 (37 °C).
Taken in the same sequence, the figures for CCUUAGCAAUAUUACGCGUU were -3.55 ± 0.21 and -2.12 ± 0.16.
Take AGUUAGCAAUAUUACGAUGG: the “self-splicing fitness (ln)” value is -2.45 ± 0.17 (30 °C) and -1.51 ± 0.19 (37 °C).
Turning to CUGAAGCAAUAUUACGUGAG, the “self-splicing fitness (ln)” value is -0.269 ± 0.044 (30 °C) and 0.305 ± 0.065 (37 °C).
Taken in the same sequence, the figures for UGUUAGCAAUAUUACGUUGC were -2.88 ± 0.24 and -1.62 ± 0.26.
For GUCAAGCAAUAUUACGGCUU the same measures were -4.12 ± 0.35 and -2.74 ± 0.31.
In the case of UGGAAGCAAUAUUACGUCAG, the “self-splicing fitness (ln)” value is, setting by setting: (30 °C) -0.777 ± 0.12; (37 °C) -0.119 ± 0.16.
As for AGAAAGCAAUAUUACGACCA, the “self-splicing fitness (ln)” value was -0.541 ± 0.11 (30 °C) and 0.144 ± 0.15 (37 °C).
Taken in the same sequence, the figures for CUGGAGCAAUAUUACGUUAA were -3.18 ± 0.37 and -2.05 ± 0.24.
For UGCGAGCAAUAUUACGUCUU the same measures were -2.61 ± 0.16 and -2.04 ± 0.16.
With UAGUAGCAAUAUUACGUACC, the “self-splicing fitness (ln)” value (30 °C) is -2.29 ± 0.37 and the “self-splicing fitness (ln)” value (37 °C) is -1.21 ± 0.27.
AACGAGCAAUAUUACGCUAC: the “self-splicing fitness (ln)” value (37 °C) was -1.86 ± 0.31.
Take ACUUAGCAAUAUUACGUUGG: the “self-splicing fitness (ln)” value was -1.67 ± 0.079 (30 °C) and -1.05 ± 0.11 (37 °C).
Consider CCAAAGCAAUAUUACGCUGU, for which the “self-splicing fitness (ln)” value by setting is: (30 °C) -3.89 ± 0.14; (37 °C) -2.69 ± 0.15.
As for GCCCAGCAAUAUUACGUCAA, the “self-splicing fitness (ln)” value is -2.62 ± 0.1 (30 °C) and -1.68 ± 0.097 (37 °C).
Consider AUCUAGCAAUAUUACGCGAA, for which the “self-splicing fitness (ln)” value reads like this: (30 °C) -2 ± 0.24; (37 °C) -0.373 ± 0.14.
Taken in the same sequence, the figures for GUUCAGCAAUAUUACGUCAG were -3.88 ± 0.23 and -3.07 ± 0.24.
Turning to UCACAGCAAUAUUACGCUGA, the “self-splicing fitness (ln)” value was -2.76 ± 0.18 (30 °C) and -1.54 ± 0.14 (37 °C).
As to AUUCAGCAAUAUUACGCCCG, the “self-splicing fitness (ln)” value (30 °C) was -1.85 ± 0.34.
Take CCGAAGCAAUAUUACGCGUU: the “self-splicing fitness (ln)” value was -4.01 ± 0.16 (30 °C) and -2.4 ± 0.12 (37 °C).
Taken in the same sequence, the figures for CGUAAGCAAUAUUACGCCGG were -1.38 ± 0.11 and -1.04 ± 0.14.
Taken in the same sequence, the figures for UACUAGCAAUAUUACGUGUA were -3.12 ± 0.28 and -0.943 ± 0.14.
As for UCUAAGCAAUAUUACGUACU, the “self-splicing fitness (ln)” value reads like this: (30 °C) -2.18 ± 0.17; (37 °C) -1.86 ± 0.21.
For AAGCAGCAAUAUUACGAUGU the same measures were -1.3 ± 0.06 and -0.566 ± 0.078.
For the sequence CCGUAGCAAUAUUACGGCAA, the “self-splicing fitness (ln)” value was -3.49 ± 0.43 (30 °C) and -2.42 ± 0.42 (37 °C).
CUCAAGCAAUAUUACGAUGG: the “self-splicing fitness (ln)” value is, setting by setting: (30 °C) -1.28 ± 0.061; (37 °C) 0.0609 ± 0.08.
As for GGUUAGCAAUAUUACGAGGU, the “self-splicing fitness (ln)” value (37 °C) is -2.43 ± 0.32.
Turning to CACGAGCAAUAUUACGAUGU, the “self-splicing fitness (ln)” value runs as follows: (30 °C) -3.52 ± 0.18; (37 °C) -3.49 ± 0.24.
Taken in the same sequence, the figures for CAUUAGCAAUAUUACGUCUA were -2.74 ± 0.17 and -2.2 ± 0.17.
For AAGCAGCAAUAUUACGGAGU the same measures were -3.69 ± 0.13 and -1.15 ± 0.1.
For GCCAAGCAAUAUUACGGCAC, the “self-splicing fitness (ln)” value is, setting by setting: (30 °C) -2.04 ± 0.12; (37 °C) -0.268 ± 0.12.
As to GGGGAGCAAUAUUACGGCGU, the “self-splicing fitness (ln)” value is, setting by setting: (30 °C) -1.31 ± 0.12; (37 °C) -1.08 ± 0.15.
Regarding CUAUAGCAAUAUUACGACGG, the “self-splicing fitness (ln)” value runs as follows: (30 °C) 0.143 ± 0.13; (37 °C) 0.155 ± 0.15.
For CAGUAGCAAUAUUACGAUGU the same measures were -2.34 ± 0.16 and -1.65 ± 0.18.
For UUAGAGCAAUAUUACGACAA the same measures were 0.166 ± 0.062 and 0.493 ± 0.09.
For CUGAAGCAAUAUUACGUAUU the same measures were -3.86 ± 0.22 and -2.85 ± 0.3.
Take GCUAAGCAAUAUUACGAGCG: the “self-splicing fitness (ln)” value by setting is: (30 °C) -1.7 ± 0.11; (37 °C) -0.246 ± 0.12.
In the case of CCAAAGCAAUAUUACGAGAG, the “self-splicing fitness (ln)” value (30 °C) was -2.24 ± 0.23 and the “self-splicing fitness (ln)” value (37 °C) is -1.91 ± 0.2.
As to UUCUAGCAAUAUUACGACGC, under “30 °C”, the “self-splicing fitness (ln)” value is -2.76 ± 0.44.
With AGUAAGCAAUAUUACGUUUU, the “self-splicing fitness (ln)” value by setting is: (30 °C) -3.28 ± 0.14; (37 °C) -2.19 ± 0.16.
Turning to CAAGAGCAAUAUUACGGCCG, the “self-splicing fitness (ln)” value is -0.899 ± 0.13 (30 °C) and -0.536 ± 0.17 (37 °C).
For GAAGAGCAAUAUUACGUUAU the same measures were -3.85 ± 0.25 and -1.47 ± 0.2.
For AAAGAGCAAUAUUACGAGUU the same measures were -3 ± 0.17 and -1.92 ± 0.2.
Taken in the same sequence, the figures for CGAGAGCAAUAUUACGUCAC were -4.62 ± 0.39 and -2.45 ± 0.3.
Regarding AGUAAGCAAUAUUACGUGGG, the “self-splicing fitness (ln)” value by setting is: (30 °C) -3.66 ± 0.26; (37 °C) -1.89 ± 0.17.
Turning to CCCCAGCAAUAUUACGUAUU, the “self-splicing fitness (ln)” value (30 °C) is -3.55 ± 0.16 and the “self-splicing fitness (ln)” value (37 °C) was -3.28 ± 0.28.
Taken in the same sequence, the figures for CCCAAGCAAUAUUACGAUUG were -3.88 ± 0.2 and -2.78 ± 0.28.
For AUUAAGCAAUAUUACGGCAG the same measures were -1 ± 0.11 and 0.0222 ± 0.13.
As for UCUGAGCAAUAUUACGUUGC, the “self-splicing fitness (ln)” value (30 °C) is -3.64 ± 0.28.
Regarding CAGAAGCAAUAUUACGUUUA, the “self-splicing fitness (ln)” value runs as follows: (30 °C) -3.13 ± 0.18; (37 °C) -1.95 ± 0.12.
For the sequence GCGAAGCAAUAUUACGUGCU, the “self-splicing fitness (ln)” value (30 °C) is -2.63 ± 0.16 and the “self-splicing fitness (ln)” value (37 °C) is -2.75 ± 0.2.
For UAAAAGCAAUAUUACGUUAU the same measures were -3.59 ± 0.16 and -2.41 ± 0.13.
For AUCUAGCAAUAUUACGAUCA, the “self-splicing fitness (ln)” value was -1.92 ± 0.14 (30 °C) and -0.116 ± 0.18 (37 °C).
Taken in the same sequence, the figures for GCUUAGCAAUAUUACGCCUG were -2.35 ± 0.14 and -1.02 ± 0.13.
